Measured values from article doi:10.1101/2025.11.06.687086 (2025).
Where a chain is given by its changes, count along the chain named. In names and notes the source's numbering stands.

B1: HB31 VH R55G germline revertant Fab (Fab, V domains shown)
VH: EVQLLESGGGLVQPGGSLRLSCTVSGFTSSNYDMSWVRQAPGKGLEWVSGISGTGGDTYYADSVKGRFTISRDNSKNTLSLQMNSLRADDTAVYFCARDRPVLRYFDWQPYGLDVWGKGTTVTVSS
VL: QSALTQPPSASGSPGQSVTISCTGTSSDVGGYNYVSWYQQYPSKAPKLMIYEVSKRPSGVPDRFSGSKSGNTASLTVSGLQAEDEADYYCNSYAGSNLYVFGTGTKVTVL
B2: HB31 Fab (Fab, V domains shown)
VH: B1 VH with G56R
VL: B1 VL

Target: A/Texas/37/2024 (H5N1) HA (influenza A virus A/Texas/37/2024 (H5N1))
Test: BLI

| Binder | Kd [nM] |
| --- | --- |
| B1 | 10.5 |
| B2 | 4.5 |
